Positions count from the first letter of the chain named.
B1: murine 224G11 Mab (antibody, V domains shown)
VH: EVQLQQSGPELVKPGASVKISCKTSGYIFTAYTMHWVRQSLGESLDWIGGIKPNNGLANYNQKFKGKATLTVDKSSSTAYMDLRSLTSEDSAVYYCARSEITTEFDYWGQGTALTVSS
VL: DIVLTQSPASLAVSLGQRATISCRASESVDSYANSFMHWYQQKPGQPPKLLIYRASNLESGIPARFSGSGSRTDFTLTINPVEADDVATYYCQQSKEDPLTFGSGTKLEMKR
B2: [224G11] [MMCH chim] (antibody, V domains shown)
VH: B1 VH
VL: B1 VL
B3: [224G11]chim (antibody, human IgG1, V domains shown)
VH: B1 VH
VL: B1 VL
B4: [224G11] [MH chim] (antibody, V domains shown)
VH: B1 VH
VL: B1 VL
B5: [224G11] [MUP9H chim] (antibody, V domains shown)
VH: B1 VH
VL: B1 VL
B6: [224G11] [TH7 chim] (antibody, human IgG1)
heavy: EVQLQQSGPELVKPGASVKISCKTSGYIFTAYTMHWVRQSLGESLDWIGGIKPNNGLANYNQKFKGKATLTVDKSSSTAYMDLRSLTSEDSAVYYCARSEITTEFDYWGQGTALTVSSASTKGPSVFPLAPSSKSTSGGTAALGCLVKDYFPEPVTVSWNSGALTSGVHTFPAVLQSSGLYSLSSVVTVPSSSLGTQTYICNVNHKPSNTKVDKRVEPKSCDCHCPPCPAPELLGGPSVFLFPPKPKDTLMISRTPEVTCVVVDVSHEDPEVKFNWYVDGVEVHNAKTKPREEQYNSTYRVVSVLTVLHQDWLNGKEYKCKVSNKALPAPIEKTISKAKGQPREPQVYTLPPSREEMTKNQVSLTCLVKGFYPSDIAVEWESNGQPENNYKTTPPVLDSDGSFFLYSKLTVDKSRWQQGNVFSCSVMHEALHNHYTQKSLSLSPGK
light: DIVLTQSPASLAVSLGQRATISCRASESVDSYANSFMHWYQQKPGQPPKLLIYRASNLESGIPARFSGSGSRTDFTLTINPVEADDVATYYCQQSKEDPLTFGSGTKLEMKRTVAAPSVFIFPPSDEQLKSGTASVVCLLNNFYPREAKVQWKVDNALQSGNSQESVTEQDSKDSTYSLSSTLTLSKADYEKHKVYACEVTHQGLSSPVTKSFNRGEC
B7: [224G11] [Hz1] (antibody, V domains shown)
VH: QVQLVQSGAEVKKPGASVKVSCKASGYIFTAYTMHWVRQAPGQGLEWMGWIKPNNGLANYAQKFQGRVTMTRDTSISTAYMELSRLRSDDTAVYYCARSEITTEFDYWGQGTLVTVSS
VL: DIVLTQSPDSLAVSLGERATINCKSSESVDSYANSFMHWYQQKPGQPPKLLIYRASTRESGVPDRFSGSGSRTDFTLTISSLQAEDVAVYYCQQSKEDPLTFGGGTKVEIKR
B8: [224G11] [TH7 Hz3] (antibody, human IgG1, V domains shown)
VH: B7 VH
VL: B7 VL with L4M, M37L, R72G
B9: [224G11] [Hz3] (antibody, V domains shown)
VH: B7 VH
VL: B7 VL with L4M, M37L, R72G
B10: [224G11] [TH7 Hz1] (antibody, human IgG1, V domains shown)
VH: B7 VH
VL: B7 VL
B11: [224G11] [Hz2] (antibody, V domains shown)
VH: B7 VH
VL: B7 VL with L4M, R72G
B12: [224G11] [IgG2 chim] (antibody)
heavy: EVQLQQSGPELVKPGASVKISCKTSGYIFTAYTMHWVRQSLGESLDWIGGIKPNNGLANYNQKFKGKATLTVDKSSSTAYMDLRSLTSEDSAVYYCARSEITTEFDYWGQGTALTVSSASTKGPSVFPLAPCSRSTSESTAALGCLVKDYFPEPVTVSWNSGALTSGVHTFPAVLQSSGLYSLSSVVTVPSSNFGTQTYTCNVDHKPSNTKVDKTVERKCCVECPPCPAPPVAGPSVFLFPPKPKDTLMISRTPEVTCVVVDVSHEDPEVQFNWYVDGVEVHNAKTKPREEQFNSTFRVVSVLTVVHQDWLNGKEYKCKVSNKGLPAPIEKTISKTKGQPREPQVYTLPPSREEMTKNQVSLTCLVKGFYPSDIAVEWESNGQPENNYKTTPPMLDSDGSFFLYSKLTVDKSRWQQGNVFSCSVMHEALHNHYTQKSLSLSPG
light: B6 light
B13: [224G11] [TH7 Hz2] (antibody, human IgG1, V domains shown)
VH: B7 VH
VL: B7 VL with L4M, R72G

target: human c-Met receptor (human, UniProt P08581 25-1390); experiment: cell-based or functional assay
Sequence (P08581 25-1390): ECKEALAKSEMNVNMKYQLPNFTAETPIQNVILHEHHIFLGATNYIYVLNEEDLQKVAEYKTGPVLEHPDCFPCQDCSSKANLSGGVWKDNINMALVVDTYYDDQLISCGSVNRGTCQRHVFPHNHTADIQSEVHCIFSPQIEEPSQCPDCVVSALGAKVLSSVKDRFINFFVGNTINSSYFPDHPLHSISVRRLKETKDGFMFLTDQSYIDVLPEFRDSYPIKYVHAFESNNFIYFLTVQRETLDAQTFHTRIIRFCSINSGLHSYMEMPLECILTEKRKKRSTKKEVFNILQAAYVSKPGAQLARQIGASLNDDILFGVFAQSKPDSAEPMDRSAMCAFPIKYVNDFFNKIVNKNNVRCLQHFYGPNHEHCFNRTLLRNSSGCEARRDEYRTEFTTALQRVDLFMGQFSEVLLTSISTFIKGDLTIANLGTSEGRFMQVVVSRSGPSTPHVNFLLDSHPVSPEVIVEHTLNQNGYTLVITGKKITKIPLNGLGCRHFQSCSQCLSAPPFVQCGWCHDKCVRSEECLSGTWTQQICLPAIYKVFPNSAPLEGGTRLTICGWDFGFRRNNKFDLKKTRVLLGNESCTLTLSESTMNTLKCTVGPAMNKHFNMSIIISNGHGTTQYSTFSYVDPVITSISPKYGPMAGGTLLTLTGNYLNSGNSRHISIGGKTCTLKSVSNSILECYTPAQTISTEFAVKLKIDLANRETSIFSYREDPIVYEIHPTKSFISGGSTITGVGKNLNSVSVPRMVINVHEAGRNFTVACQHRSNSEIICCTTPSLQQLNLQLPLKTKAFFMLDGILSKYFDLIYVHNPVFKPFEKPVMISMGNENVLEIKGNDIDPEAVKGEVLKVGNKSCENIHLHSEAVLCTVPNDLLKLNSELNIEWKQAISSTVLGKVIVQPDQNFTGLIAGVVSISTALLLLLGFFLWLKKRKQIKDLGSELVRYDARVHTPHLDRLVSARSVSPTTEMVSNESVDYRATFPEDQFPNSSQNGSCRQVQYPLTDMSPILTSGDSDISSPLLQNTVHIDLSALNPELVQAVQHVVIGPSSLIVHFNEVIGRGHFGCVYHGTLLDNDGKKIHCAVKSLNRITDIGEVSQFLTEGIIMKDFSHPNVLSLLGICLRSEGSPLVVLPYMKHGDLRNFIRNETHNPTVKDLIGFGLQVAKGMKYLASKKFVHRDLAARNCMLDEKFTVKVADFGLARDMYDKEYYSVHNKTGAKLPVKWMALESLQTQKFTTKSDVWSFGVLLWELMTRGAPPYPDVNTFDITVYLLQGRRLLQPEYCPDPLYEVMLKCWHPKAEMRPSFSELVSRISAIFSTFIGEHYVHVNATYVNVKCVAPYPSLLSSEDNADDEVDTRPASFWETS

First: B1
Second: B3
The “inhibition of HGF-induced proliferation of NCI-H441 cells ([3H]thymidine), FIG. 14A” value (from here on “inhibition … FIG. 14A”) of the first is higher: 66% for the first, 19% for the second.

Compared with B7, B9 is lower in “inhibition … FIG. 14A” value: ~46% for the first, ~35% for the second.

In the case of B11, the “inhibition … FIG. 14A” value is reported as ~30%.

First: B1
Second: B2
The “inhibition of HGF-induced proliferation of NCI-H441 cells ([3H]thymidine), FIG. 14B” value (from here on “inhibition … FIG. 14B”) of the first is lower: 57% for the first, 84% for the second.

Going from B4 to B5, the “inhibition … FIG. 14B” value falls from 79% to 78%.

With B6 the “inhibition … FIG. 14B” value was 93%.

First: B1
Second: B3
The “inhibition of HGF-induced proliferation of NCI-H441 cells ([3H]thymidine), FIG. 15” value (from here on “inhibition … FIG. 15”) of the first is higher: 74% for the first, 33% for the second.

Compared with B6, B8 is lower in “inhibition … FIG. 15” value: 81% for the first, 76% for the second.

With B10 the “inhibition … FIG. 15” value was 67%.

target: C-Met-Rluc (R. reniformis, UniProt P08581 25-1390); experiment: cell-based or functional assay
Sequence (P08581 25-1390): as above

First: B1
Second: B2
The “inhibition of HGF induced BRET signal, c-Met activation model” value (“inhibition … c-Met activation model” for short) of the first is higher: 56.4% for the first, 53.2% for the second.

Compared with B3, B4 is higher in “inhibition … c-Met activation model” value: 34.5% for the first, 59.7% for the second.

Going from B5 to B6, the “inhibition … c-Met activation model” value rises from 64.4% to 73.8%.

Compared with B8, B13 is lower in “inhibition … c-Met activation model” value: 57.9% for the first, 41.8% for the second.

With B10 the “inhibition … c-Met activation model” value was 59.9%.

Compared with B1, B2 is lower in “inhibition of HGF induced BRET signal, c-Met dimerization model” value (from here on “inhibition … c-Met dimerization model”): 59.4% for the first, 52.5% for the second.

Going from B3 to B4, the “inhibition … c-Met dimerization model” value rises from 28.9% to 61.8%.

B5 and B6 are the same in “inhibition … c-Met dimerization model” value: 64.4% for the first, 64.4% for the second.

Compared with B12, B8 is lower in “inhibition … c-Met dimerization model” value: 62.4% for the first, 49.4% for the second.

Going from B13 to B10, the “inhibition … c-Met dimerization model” value rises from 35.8% to 52.2%.

Compared with B2, B4 is higher in “BRET signal with Mab alone, c-Met activation model” value: -2% for the first, 5.1% for the second.

First: B5
Second: B6
The “BRET signal with Mab alone, c-Met activation model” value of the first is higher: 7.6% for the first, -6.9% for the second.

From patent US20110239316A1 (PIERRE FABRE MEDICAMENT, published 2011)
